Entries after “also recorded” stand apart in the source; their conditions may differ.
T1: Lyp1 (Homo sapiens, UniProt Q9Y2R2)
T1 construct: made in house; host or cells: COS cells (transient transfection, pcDNA3); anti-T7 immunoprecipitate
T1 sequence (Q9Y2R2 1-807): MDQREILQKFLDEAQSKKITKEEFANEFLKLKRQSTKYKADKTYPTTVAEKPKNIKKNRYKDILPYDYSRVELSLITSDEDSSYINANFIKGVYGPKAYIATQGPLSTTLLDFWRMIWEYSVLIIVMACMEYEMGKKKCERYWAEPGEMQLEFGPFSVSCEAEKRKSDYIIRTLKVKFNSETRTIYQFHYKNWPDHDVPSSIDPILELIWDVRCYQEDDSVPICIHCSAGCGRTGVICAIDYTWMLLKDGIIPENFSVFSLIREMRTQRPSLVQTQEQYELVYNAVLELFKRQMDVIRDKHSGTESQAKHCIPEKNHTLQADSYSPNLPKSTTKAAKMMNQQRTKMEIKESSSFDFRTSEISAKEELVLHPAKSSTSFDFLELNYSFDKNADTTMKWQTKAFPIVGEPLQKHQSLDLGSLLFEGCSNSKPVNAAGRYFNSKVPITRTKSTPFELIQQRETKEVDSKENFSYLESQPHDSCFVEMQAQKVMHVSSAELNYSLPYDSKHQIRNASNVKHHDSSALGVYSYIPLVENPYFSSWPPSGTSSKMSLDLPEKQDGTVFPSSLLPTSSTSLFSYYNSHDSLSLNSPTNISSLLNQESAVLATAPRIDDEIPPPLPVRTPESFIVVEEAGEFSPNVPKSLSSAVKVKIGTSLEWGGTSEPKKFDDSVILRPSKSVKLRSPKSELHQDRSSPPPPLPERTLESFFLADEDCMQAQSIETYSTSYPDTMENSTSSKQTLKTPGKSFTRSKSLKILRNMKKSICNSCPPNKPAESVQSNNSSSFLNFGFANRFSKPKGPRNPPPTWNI


Assays:
[1] = target: T1, Lyp1; assay: In vitro phosphatase assay with 33P labelled Raytide peptide and Lyp immunoprecipitates; format: biochemical; settings: Lyp immunoprecipitates from transfected COS cells compared to control immunoprecipitates from untransfected cells
Protocol: Anti-Lyp immunoprecipitates from untransfected and pcDNA3-Lyp1 transfected cells were prepared in pervanadate free lysis buffer and incubated with ^33P labelled substrate Raytide. At the indicated time points reactions were stopped by the addition of charcoal and the free ^33P released from the peptide and now present in the supernatant measured by liquid scintillation counting.
Raytide peptide was ^33P labelled on tyrosine residues in vitro using the tyrosine kinase p60src and purified on phosphocellulose paper. Release of ^33P over time was measured in the phosphatase assay and compared to controls from untransfected cells.
Specifically, the synthetic peptide Raytide was phosphorylated according to the method described by Guan et al., (1994)(54), on tyrosine by p60src (Oncogene Science) as follows: 10 μg Raytide in 50 mM Hepes pH 7.5, 10 mM MgCl2, 0.067% mercaptoethanol, 0.05 mM ATP was incubated with 300 μCiγ^33P ATP per ml and 2 μg p60src in a final volume of 30 μl. The reaction was allowed to proceed for 30 minutes at 30° C. and was stopped by the addition of […] 10% phosphoric acid.
The sample was spotted onto two 1×1 cm sheets of P81 phophocellulose paper and extensively washed with 0.5% phosphoric acid. […]
The phosphorylated substrate was used in the phosphatase assay as described by Stueli et al (1989)(54). […] After centrifugation the free ^33P in the supernatant was measured.

[2] = system: Fyn; assay: Co-transfection of Lyp1 and kinase cDNA, kinase immunoprecipitation, anti-phosphotyrosine Western blot; format: cell-based; settings: COS-7 and 293-T cells
Protocol: (§1) Western blotting was performed with anti-phosphotyrosine antibodies and chemiluminescent detection reagents. […] Syk was unaffected by Lyp1 (C).
(§2) cDNA for the phosphatase Lyp1 and the indicated kinase, in the eucaryotic expression vector pcDNA3, were transiently transfected into either the COS-7 monkey epithelial cell line (A) or the 293T human epithelial cell line as indicated. 48 hours after transfection, cells were harvested, lysates made in 1 & NP-40 lysis buffer and immunoprecipitations performed with antibodies to the transfected kinase. Immunoprecipitates were washed, boiled in SDS sample buffer and electrophoresed on SDS-PAGE. After electro-transfer to nitrocellulose membrane, Western blotting was performed with anti-phosphotyrosine antibodies and chemiluminescent detection reagents. […] Lyp1 could also down-regulate Zap-70 after its activation by Fyn in 293-T cells (B, lanes 3 and 4). The closely related Zap family kinase Syk was also unaffected by Lyp1 (C).

[3] = system: Zap-70; assay: as above; format: cell-based
Protocol: as §1, §2

[4] = system: Syk; assay: Co-transfection of Lyp1 or Lyp-N and kinase cDNA, kinase immunoprecipitation, anti-phosphotyrosine Western blot; format: cell-based; settings: co-transfection with Syk
Protocol: as §1
(§3) Western blotting was performed with anti-phosphotyrosine antibodies and chemiluminescent detection reagents. Lyp1 reduced the tyrosine phosphorylation of Jak3 (C) while having little effect on Syk (D). No effect was seen when Syk was co-transfected with Lyp-N (D).
as §2, with “(C). […]” for “(C).”

[5] = system: Jak3; assay: Co-transfection of Lyp1 and kinase cDNA in COS-7, kinase immunoprecipitation, anti-phosphotyrosine Western blot; format: cell-based; settings: COS-7 cells
Protocol: as §3
cDNA for the phosphatase Lyp1 and the indicated kinase, in the eucaryotic expression vector pcDNA3, were transiently transfected into the COS-7 monkey epithelial cell line. 48 hours after transfection, cells were harvested, lysates made in 1% NP-40 lysis buffer and immunoprecipitations performed with antibodies to the transfected kinase. Immunoprecipitates were washed, boiled in SDS sample buffer and electrophoesed on SDS-PAGE. After electro-transfer to nitrocellulose membrane, Western blotting was performed with anti-phosphotyrosine antibodies and chemiluminescent detection reagents.

[6] = system: Cbl; assay: Lyp1 transfection into COS-7 cells, Cbl immunoprecipitation, anti-phosphotyrosine blot; format: cell-based, monkey; settings: Lyp1 transfected COS-7 cells, endogenous Cbl
Protocol: (A) Lyp immunoprecipitates from thymocytes (80×10^6 cells) stimulated with anti-CD3 were blotted with antiphsophotyrosine. A single phosphorylated band of 116 kD was detected co-immunoprecipitating with Lyp. Lyp protein loading was quantitated by anti-Lyp western blot after stripping. […] (C) Lyp1 was transfected into COS-7 cells and Cbl immunoprecipitates prepared from these and untransfected cells. Western blotting was performed with Lyp antibodies. The position of Lyp is indicted by an arrow. Cbl immunoprecipitates were also prepared and blotted with anti-phosphotyrosine (D), and then anti-Cbl after stripping.
One of the earliest events following TCR stimulation of T cells is the induction of tyrosine phosphorylation. In order to determine whether Lyp played a role in TCR signalling, human thymocytes were stimulated with anti-CD3 for various periods of time, Lyp immunoprecipitated and blotted with anti-phosphotyrosine. […] Once activated, the phosphorylation level of this protein remained constant over a period of 20 minutes. The 116 kD phosphorylated protein was identified by western blotting of Lyp immunoprecipitates from CD3 stimulated thymocytes with antibodies to various candidate proteins. […]

[7] = system: Lyn kinase; assay: Effect of Lyp1 on Lyn kinase activity; format: cell-based
[8] = system: Ick; assay: Co-transfection of Lyp1 and src family kinases; format: cell-based; settings: Lyp1 with src family kinases

Molecule	33P release from the substrate Raytide [1]	Fyn tyrosine phosphorylation [2]	Zap-70 phosphorylation after its activation by Fyn ([3]; 293-T cells)	Zap-70 tyrosine phosphorylation ([3]; COS-7 and 293-T cells)	Syk tyrosine phosphorylation [4]	Jak3 tyrosine phosphorylation [5]	basal level of Cbl tyrosine phosphorylation [6]	Lyn kinase activity [7]	Ick dephosphorylation [8]
Lyp1: human intracellular 105 kDa lymphoid protein tyrosine phosphatase, 808 amino acids, Sequence ID NO:2 (Table 2) (protein, listed as Homo sapiens) MDQREILQKFLDEAQSKKITKEEFANEFLKLKRQSTKYKADKTYPTTVAENAKNIKKNRYKDILPYDYSRVELSLITSDEDSSYINANFIKGVYGPKAYIATQGPLSTTLLDFWRMIWEYSVLIIVMACMEYEMGKKKCERYWAEPGEMQLEFGPFSVSCEAEKRKSDYIIRTLKVKFNSETRTIYQFHYKNWPDHDVPSSIDPILELIWDVRCYQEDDSVPICIHCSAGCGRTGVICAIVDYTWMLLKDGIIPENFSVFSLIREMRTQRPSLVQTQEQYELVYNAVLELFKRQMDVIRDKHSGTESQAKHCIPEKNHTLQADSYSPNLPKSTTKAAKMMNQQRTKMEIKESSSFDFRTSEISAKEELVLHPAKSSTSFDFLELNYSFDKNADTTMKWQTKAFPIVGEPLQKHQSLDLGSLLFEGCSNSKPVNAAGRYFNSKVPITRTKSTPFELIQQRETKEVDSKENFSYLESQPHDSCFVEMQAQKVMHVSSAELNYSLPYDSKHQIRNASNVKHHDSSALGVYSYIPLVENPYFSSWPPSGTSSKMSLDLPEKQDGTVFPSSLLPTSSTSLFSYYNSHSSLSLNSPTNISSLLNQESAVLATAPRIDDEIPPPLPVRTPESFIVVEEAGEFSPNVPKSLSSAVKVKIGTSLEWGGTSEPKKFDDSVILRPSKSVKLRSPKSELHQDRSSPPPPLPERTLESFFLADEDCMQAQSIETYSTSYPDTMENSTSSKQTLKTPGKSFTRSKSLKILRNMKKSICNSCPPNKPAESVQSNNSSSFLNFGFANRFSKPKGPRNPPPTWNI	seven fold increase	unaffected; also recorded: no dephosphorylation	down-regulate	reduction; also recorded: complete dephosphorylation	unaffected; also recorded: little effect; also recorded: no Syk dephosphorylation	clearly reduced; also recorded: complete dephosphorylation	reduce significantly	strongly down-regulates	no dephosphorylation
Lyp-N: catalytically inactive form of Lyp1 where Cysteine 227 is replaced by Serine (protein, UniProt Q9Y2R2 1-807, looked up, variant C227S) Tyrosine-protein phosphatase …: MDQREILQKFLDEAQSKKITKEEFANEFLKLKRQSTKYKADKTYPTTVAEKPKNIKKNRYKDILPYDYSRVELSLITSDEDSSYINANFIKGVYGPKAYIATQGPLSTTLLDFWRMIWEYSVLIIVMACMEYEMGKKKCERYWAEPGEMQLEFGPFSVSCEAEKRKSDYIIRTLKVKFNSETRTIYQFHYKNWPDHDVPSSIDPILELIWDVRCYQEDDSVPICIHSSAGCGRTGVICAIDYTWMLLKDGIIPENFSVFSLIREMRTQRPSLVQTQEQYELVYNAVLELFKRQMDVIRDKHSGTESQAKHCIPEKNHTLQADSYSPNLPKSTTKAAKMMNQQRTKMEIKESSSFDFRTSEISAKEELVLHPAKSSTSFDFLELNYSFDKNADTTMKWQTKAFPIVGEPLQKHQSLDLGSLLFEGCSNSKPVNAAGRYFNSKVPITRTKSTPFELIQQRETKEVDSKENFSYLESQPHDSCFVEMQAQKVMHVSSAELNYSLPYDSKHQIRNASNVKHHDSSALGVYSYIPLVENPYFSSWPPSGTSSKMSLDLPEKQDGTVFPSSLLPTSSTSLFSYYNSHDSLSLNSPTNISSLLNQESAVLATAPRIDDEIPPPLPVRTPESFIVVEEAGEFSPNVPKSLSSAVKVKIGTSLEWGGTSEPKKFDDSVILRPSKSVKLRSPKSELHQDRSSPPPPLPERTLESFFLADEDCMQAQSIETYSTSYPDTMENSTSSKQTLKTPGKSFTRSKSLKILRNMKKSICNSCPPNKPAESVQSNNSSSFLNFGFANRFSKPKGPRNPPPTWNI					No effect				

— US20040006777A1, “Human lymphoid protein tyrosine phosphatases” (HSC Research and Development Limited Partnership, priority 1998, published 2004)
